US6998260 (PROMEGA, dated 2006)

B1: recombinant human β-II tryptase (from pPIC9-HumTryN102K, expressed in Pichia pastoris) (enzyme)
chain: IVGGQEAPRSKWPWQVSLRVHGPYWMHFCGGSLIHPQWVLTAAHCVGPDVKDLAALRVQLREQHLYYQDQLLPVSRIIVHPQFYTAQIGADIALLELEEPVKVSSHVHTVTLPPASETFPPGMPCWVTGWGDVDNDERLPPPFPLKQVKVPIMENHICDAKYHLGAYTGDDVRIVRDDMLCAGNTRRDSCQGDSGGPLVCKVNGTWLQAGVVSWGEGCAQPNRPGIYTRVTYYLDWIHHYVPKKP
modifications: N-glycosylated at one site
notes: Homotetramer by gel filtration; also called rh β II; R βII tryptase
B2: human β-I tryptase active site mutant S194A (enzyme)
chain: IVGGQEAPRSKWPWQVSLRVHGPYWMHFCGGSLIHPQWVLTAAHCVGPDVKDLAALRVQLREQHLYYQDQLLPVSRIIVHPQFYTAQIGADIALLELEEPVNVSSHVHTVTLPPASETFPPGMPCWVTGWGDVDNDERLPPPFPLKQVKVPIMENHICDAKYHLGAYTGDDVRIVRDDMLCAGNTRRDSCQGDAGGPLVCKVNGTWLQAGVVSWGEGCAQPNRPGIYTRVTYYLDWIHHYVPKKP
notes: also called β-I S194A active site mutant; S194A β-I tryptase active site mutant
B3: recombinant human β-I tryptase (from pPIC9-HumTry, expressed in Pichia pastoris) (enzyme)
chain: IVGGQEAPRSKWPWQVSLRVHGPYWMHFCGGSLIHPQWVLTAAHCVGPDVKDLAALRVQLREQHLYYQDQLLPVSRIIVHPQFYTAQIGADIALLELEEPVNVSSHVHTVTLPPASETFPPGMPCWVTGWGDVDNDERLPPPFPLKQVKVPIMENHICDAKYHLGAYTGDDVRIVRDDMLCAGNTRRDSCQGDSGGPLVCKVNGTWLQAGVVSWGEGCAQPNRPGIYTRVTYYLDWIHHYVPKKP
modifications: N-glycosylated at two sites (N102 and N204, as the filing says)
notes: Secreted as a mature monomer that self-assembles into a homotetramer; On the Western blots (SDS-PAGE) it stood as denatured subunits; also called rh β I; R βI tryptase

Target: the molecule itself
Experiment: gel filtration; self-association of subunits into a homotetramer

Binding result, binds:
B1, B2, B3
